Tests used:
[1] = molecular target: T1, human ASIC1 (human, UniProt P78348 1-528); assay: cell-based or functional assay
T1 sequence: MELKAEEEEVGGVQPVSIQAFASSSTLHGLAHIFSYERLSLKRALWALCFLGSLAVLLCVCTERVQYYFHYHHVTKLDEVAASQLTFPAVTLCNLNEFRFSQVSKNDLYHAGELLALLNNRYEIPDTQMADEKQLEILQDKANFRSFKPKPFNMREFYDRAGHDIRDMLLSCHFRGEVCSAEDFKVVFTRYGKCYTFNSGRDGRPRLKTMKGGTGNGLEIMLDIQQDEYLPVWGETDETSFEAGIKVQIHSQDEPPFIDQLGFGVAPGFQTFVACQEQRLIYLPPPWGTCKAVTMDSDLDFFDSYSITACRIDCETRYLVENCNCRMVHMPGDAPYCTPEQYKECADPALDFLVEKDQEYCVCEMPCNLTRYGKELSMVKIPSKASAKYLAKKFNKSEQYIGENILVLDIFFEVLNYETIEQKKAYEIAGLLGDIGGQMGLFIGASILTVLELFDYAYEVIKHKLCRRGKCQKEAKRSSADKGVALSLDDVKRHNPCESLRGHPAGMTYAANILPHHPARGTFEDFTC

[2] = molecular target: T1, human ASIC1; assay: FACS titration, 3T3/hASIC1 cells
Description: To perform the FACS binding experiments, adherent cells were collected using 1 mM EDTA in PBS, then washed, and re-suspended in cold PBS containing 5% FBS. For each binding experiment, each anti-ASIC1 antibody ([…] or ND7 cells) was added to 250,000 cells in 500 μL of PBS with 5% FBS. After incubation for 20 minutes at room temperature, a secondary antibody which recognizes human Fc (Cat. No. 109-136-098, Jackson ImmunoResearch Laboratories, Inc., West Grove, Pa.) or mouse Fc (Cat. No. 550826, BD Biosciences, San Jose, Calif.) and is conjugated to allophycocyanin, was then added to the cell mixture at a final concentration of 13.3 nM. After incubating for 20 minutes on ice, the cells were washed and resuspended in PBS containing 5% FBS, then sorted and analyzed on a flow cytometer (FACSCalibur, BD Biosciences, San Jose, Calif.) to determine relative binding by the candidate antibodies to the tested cell lines. Histograms of cells stained with anti-ASIC1 antibodies were compared with those of cells stained with secondary antibody alone. Percentage of ASIC1 signal over secondary antibody alone was calculated using FlowJo software (Tree Star, Ashland, Oreg.).

[3] = molecular target: T2, human ASIC1/ASIC3 channels (co-expressed human ASIC1a and human ASIC3) (human, UniProt Q9UHC3 1-531); assay: FACS, 3T3/hASIC1/3 cells, 10 nM antibody
T2 construct: whole, on cells; 3T3 cells co-expressing both subunits; also called 3T3/hASIC1/3; 3T3-hASIC1/ASIC3
T2 sequence 1: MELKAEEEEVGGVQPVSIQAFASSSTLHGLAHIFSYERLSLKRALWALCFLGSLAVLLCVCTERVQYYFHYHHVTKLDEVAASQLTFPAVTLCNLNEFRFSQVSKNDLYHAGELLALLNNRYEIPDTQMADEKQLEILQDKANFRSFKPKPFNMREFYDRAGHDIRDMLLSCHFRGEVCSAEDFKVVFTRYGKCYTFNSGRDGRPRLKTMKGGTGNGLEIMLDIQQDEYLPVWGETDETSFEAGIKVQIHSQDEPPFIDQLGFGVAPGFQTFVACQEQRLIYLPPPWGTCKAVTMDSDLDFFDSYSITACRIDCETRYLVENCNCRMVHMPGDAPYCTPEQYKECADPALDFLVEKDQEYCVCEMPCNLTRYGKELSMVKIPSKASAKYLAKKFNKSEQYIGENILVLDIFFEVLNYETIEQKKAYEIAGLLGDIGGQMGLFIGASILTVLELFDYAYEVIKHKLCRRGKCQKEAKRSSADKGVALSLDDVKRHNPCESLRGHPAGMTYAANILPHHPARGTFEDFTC
T2 sequence 2: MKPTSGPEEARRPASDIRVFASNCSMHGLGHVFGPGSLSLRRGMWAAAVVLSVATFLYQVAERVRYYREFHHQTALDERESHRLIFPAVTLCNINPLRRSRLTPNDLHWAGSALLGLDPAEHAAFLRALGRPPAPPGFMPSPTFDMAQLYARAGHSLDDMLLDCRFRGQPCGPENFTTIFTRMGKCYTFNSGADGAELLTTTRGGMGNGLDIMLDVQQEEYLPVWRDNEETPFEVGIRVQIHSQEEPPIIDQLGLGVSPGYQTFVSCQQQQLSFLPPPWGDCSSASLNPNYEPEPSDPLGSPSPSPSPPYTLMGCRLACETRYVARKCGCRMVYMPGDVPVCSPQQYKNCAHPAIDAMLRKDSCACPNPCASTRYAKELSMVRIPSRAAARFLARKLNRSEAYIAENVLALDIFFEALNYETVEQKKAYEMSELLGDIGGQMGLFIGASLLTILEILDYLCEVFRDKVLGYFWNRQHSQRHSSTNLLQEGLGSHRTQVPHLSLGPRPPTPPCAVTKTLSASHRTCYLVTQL
Excerpt: (§1) For these experiments, four cell lines were constructed: (a) a mouse fibroblast 3T3 cell line stably transfected to overexpress full length human ASIC3 (3T3/hASIC3; amino acids 1-531 of NCBI accession number NP_{—}004760.1), (b) a 3T3 cell line stably transfected to co-express full length human ASIC1a and human ASIC3 (3T3/hASIC1/3; amino acids 1-528 of NCBI accession number NP_{—}001086.2 and amino acids 1-531 of NCBI accession number NP_{—}004760.1), (c) […] a stably transfected 3T3 cell line expressing the full-length mouse ASIC3 channel (3T3/mASIC3; amino acids 1-530 of NCBI accession number NP_{—}892045.2), and (d) a 3T3 cell line stably transfected to co-express full length mouse ASIC1a and mouse ASIC3 (3T3/mASIC1/3; amino acids 1-526 of NCBI accession number NP_{—}033727 and amino acids 1-530 of NCBI accession number NP_{—}892045.2). Antibody binding was determined using flow cytometry (FACS).
(§2) To perform the FACS binding experiments, adherent cells were collected with cold Millipore Accutase 3-5 minutes, spun and resuspended in ice-cold FACS buffer (PBS, 2% HI-FBS and 0.09% Na-azide). Anti-ASIC1 antibody at final concentrations of 10 nM was added for 20-30 minutes on ice. Cells were washed with 900 μL ice-cold FACS buffer, spun, and resuspended in 100 μL ice-cold FACS buffer. A secondary antibody which recognizes human Fc (Jackson Immuno Research, #109-136-098) and is conjugated to allophycocyanin, was then added to the cell mixture at a final concentration of 2.5 ug/mL. After incubating for 20 minutes on ice, the cells were washed and resuspended in FACS buffer, then sorted and analyzed on a flow cytometer (FACSCanto II, BD Biosciences, San Jose, Calif.) to determine relative binding by the candidate antibodies to the tested cell lines. Histograms of cells stained with anti-ASIC1 antibodies were compared with those of cells stained with secondary antibody alone. Percentage of ASIC1 signal over secondary antibody alone was calculated using FlowJo software (Tree Star, Ashland, Oreg.).

[4] = molecular target: T3, human ASIC3 (human, UniProt Q9UHC3 1-531); assay: FACS, 3T3/hASIC3 cells, 10 nM antibody
T3 construct: whole, on cells; Expressed on 3T3 cells (3T3/hASIC3) or HEK293 cells (HEK/hASIC3-QCells); also called hASIC3
T3 sequence (looked up): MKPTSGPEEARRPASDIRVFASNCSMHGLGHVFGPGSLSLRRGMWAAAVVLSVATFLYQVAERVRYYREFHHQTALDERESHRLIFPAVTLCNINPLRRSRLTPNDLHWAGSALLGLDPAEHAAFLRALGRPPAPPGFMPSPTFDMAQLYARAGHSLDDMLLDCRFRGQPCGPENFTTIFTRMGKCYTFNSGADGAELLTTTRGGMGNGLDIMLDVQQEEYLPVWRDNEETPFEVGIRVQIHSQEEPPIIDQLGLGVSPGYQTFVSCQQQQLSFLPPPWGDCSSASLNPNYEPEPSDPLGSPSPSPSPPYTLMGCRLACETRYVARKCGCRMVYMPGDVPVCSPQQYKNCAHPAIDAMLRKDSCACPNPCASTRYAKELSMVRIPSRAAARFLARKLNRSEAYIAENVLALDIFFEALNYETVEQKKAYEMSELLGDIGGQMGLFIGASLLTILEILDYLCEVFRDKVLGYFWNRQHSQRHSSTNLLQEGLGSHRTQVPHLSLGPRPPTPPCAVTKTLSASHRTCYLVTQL
Excerpt: as §1, §2

[5] = molecular target: T1, human ASIC1; assay: cell-based or functional assay; remark: listed apart in the source

Binder | Current inhibition (%) at 100 nM antibody, Q-Patch, pH 6.0 [1] [%] | EC50 [2] [nM] | binding result [3] | binding result [4] | FLIPR Dose Curve, pH 5.0 % Block [5] [%] | FLIPR Dose Curve, pH 5.5 % Block [5] [%] | FLIPR Dose Curve, pH 5.5 IC50 [5] [nM]
H4H6363P (antibody, V domains shown) VH: EVQLLESGGGLVQPGGSLRLSCAASGFIFTNYAMTWLRQAPGKGLEWVSALSGSGGTTYYADSVKGRFTTSRDNSKNTLYLQMNSLRAEDTAVYYCAKDPHYYGSGNDYFYYYGLDVWGRGTTVTVSS VL: not shown | 0 | 0.836 | binds | binds |  |  | 
H1M6716N (antibody, mouse IgG1, V domains shown) VH: QVQLVQSGAEVKKPGASVKVSCKASGYTFTIYDINWVRQATGQGLEWMGWMNPRSGSTGYSQKFQGRVTMTRNTSINTAFMELSSLRSEDTAVYYCVRGQLVLGYWGQGTLVTVSS VL: not shown |  | 0.023 | binds | binds | 25 | 37 | 1.1
